Source: patent US20220389111A1 (SHANGHAI EPIMAB BIOTHERAPEUTICS, published 2022)

Legend:
[1] = target: T1, mouse CD39 on CHO-K1 cells (mouse, UniProt P55772 1-510); assay: FACS on CHO-K1-mouse CD39 cells
T1 construct: whole, on cells; also called CHOK1-muCD39
T1 sequence (looked up): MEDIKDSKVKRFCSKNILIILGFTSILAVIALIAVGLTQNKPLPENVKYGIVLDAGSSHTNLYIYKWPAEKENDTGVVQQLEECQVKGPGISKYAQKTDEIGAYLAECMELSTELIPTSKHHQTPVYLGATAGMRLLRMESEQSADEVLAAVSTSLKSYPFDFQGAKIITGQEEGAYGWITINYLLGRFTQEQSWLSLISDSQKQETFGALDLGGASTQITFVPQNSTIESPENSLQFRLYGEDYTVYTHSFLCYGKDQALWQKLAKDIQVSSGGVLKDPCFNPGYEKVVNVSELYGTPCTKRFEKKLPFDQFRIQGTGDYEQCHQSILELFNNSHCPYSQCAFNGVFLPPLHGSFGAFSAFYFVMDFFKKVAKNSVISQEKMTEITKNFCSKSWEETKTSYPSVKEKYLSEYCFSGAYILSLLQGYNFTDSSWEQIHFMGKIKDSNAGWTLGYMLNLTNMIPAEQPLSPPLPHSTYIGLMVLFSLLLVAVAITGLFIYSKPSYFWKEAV
Experimental: The ability of the purified antibodies to bind to cell membrane human CD39, cynomolgus monkey CD39, or mouse CD39 was determined by FACS analysis. CHO-K1 cells stably transfected to overexpress human CD39, cynomolgus monkey CD39, or mouse CD39 (CHO-K1-huCD39 cells, CHO-K1-cyCD39 cells, and CHOK1-muCD39 cells) were generated for use in this assay. Briefly, SK-MEL-28 melanoma cells (ATCC) or CD39 overexpressing stable CHO cell lines were resuspended in PBS containing 2% FBS (FACS buffer) and seeded at 1-5×10⁵ cells/well into U-bottomed plates. Anti-CD39 mAbs or isotype control antibodies diluted in FACS buffer were added to the wells and incubated for 1 hour at 4° C. After washing with FACS buffer, 1:1000 diluted Fluorescence-labeled secondary antibody (Life Technologies/ThermoFisher Scientific) were added and incubated for 30 min. at 4° C. Unbound secondary mAb was removed by washing with FACS buffer three times, and the samples were then read on a FACS instrument. The data were processed by GraphPad software.

[2] = target: T2, mouse CD39 protein (recombinant) (mouse, UniProt P55772 38-478, limits assumed); assay: ELISA on coated mouse CD39 protein
T2 construct: also called muCD39; recombinant purified mouse CD39 protein
T2 sequence (looked up): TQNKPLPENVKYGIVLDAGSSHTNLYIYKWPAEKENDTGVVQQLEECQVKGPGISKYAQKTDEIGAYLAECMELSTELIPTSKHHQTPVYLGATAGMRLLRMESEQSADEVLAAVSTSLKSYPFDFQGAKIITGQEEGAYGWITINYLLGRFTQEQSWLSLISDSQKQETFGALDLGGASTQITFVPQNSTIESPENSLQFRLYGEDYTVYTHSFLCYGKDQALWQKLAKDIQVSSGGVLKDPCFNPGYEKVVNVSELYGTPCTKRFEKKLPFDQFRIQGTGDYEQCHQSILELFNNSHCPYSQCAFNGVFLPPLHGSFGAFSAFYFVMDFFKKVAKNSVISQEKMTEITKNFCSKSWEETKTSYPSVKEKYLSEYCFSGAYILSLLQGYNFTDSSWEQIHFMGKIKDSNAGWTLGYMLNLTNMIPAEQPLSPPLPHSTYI
Experimental: To determine if anti-CD39 mAbs bind to human CD39, ELISA plates were incubated overnight at 4° C. with human CD39 protein or mouse CD39 protein diluted in PBS, pH7.4 buffer at 1 μg/ml. Plates were washed four times in washing buffer (PBS containing 0.05% Tween 20), and blocked for 1 hour at 37° C. with 200 μl per well blocking buffer (1% BSA in PBS containing 0.05% Tween 20). After blocking buffer was removed, hybridoma supernatant or diluted purified Abs were added to the wells at 100 μl per well and incubated at 37° C. for 1 hour. The wells were washed four times with washing buffer, and anti-mouse HRP (for mouse anti-human CD39 Ab characterization) or anti-rat HRP (for rat anti-mouse CD39 Ab characterization) (Sigma) were 1:5000 diluted and added to the wells at 100 μl per well. The plates were incubated for 1 hour at 37° C. and washed four times in washing buffer. 100 μl of tetramethylbenzidine (TMB) chromogenic solution were added per well. Following color development, the reaction was stopped with 1N HCl, and absorbance at 450 nm was measured. The data were proceeded by GraphPad software.

[3] = target: T3, muCD39-ECD-His (mouse, UniProt P55772 38-477); assay: SPR (Biacore T200), antibody captured, antigen in solution
T3 construct: also called C-terminally hexahistidine-tagged murine CD39 extracellular domain
T3 chain: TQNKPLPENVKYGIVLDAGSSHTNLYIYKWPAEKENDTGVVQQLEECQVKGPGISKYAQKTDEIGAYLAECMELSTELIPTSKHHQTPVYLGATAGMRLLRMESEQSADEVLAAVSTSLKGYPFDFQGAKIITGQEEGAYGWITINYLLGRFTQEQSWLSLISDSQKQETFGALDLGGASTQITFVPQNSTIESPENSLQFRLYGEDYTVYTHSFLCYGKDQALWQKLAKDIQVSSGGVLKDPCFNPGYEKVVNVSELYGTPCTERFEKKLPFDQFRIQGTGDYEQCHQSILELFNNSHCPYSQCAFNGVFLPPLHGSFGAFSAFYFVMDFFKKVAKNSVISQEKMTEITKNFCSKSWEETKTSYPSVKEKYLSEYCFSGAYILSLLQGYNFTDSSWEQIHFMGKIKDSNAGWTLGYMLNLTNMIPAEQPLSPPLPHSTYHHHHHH
Experimental: The binding kinetics of purified antibodies was determined by surface plasmon resonance-based measurements using a Biacore T200 instrument (GE Healthcare). Briefly, goat anti-mouse IgG Fc polyclonal antibody (Genway) was directly immobilized across a biosensor chip, and antibody samples were injected over reaction matrices at a flow rate of 5 μl/min. The association and dissociation rate constants, kₒₙ (M⁻¹s⁻¹) and koff(s⁻¹), respectively, were determined by making kinetic binding measurements of anti-CD39 antibody capture at five different concentrations of a recombinant human or mouse CD39 target protein (huCD39-ECD-His or muCD39-ECD-His). The equilibrium dissociation constant KD (M) of the reaction between antibodies and related target proteins was then calculated from the kinetic rate constants using the formula: KD=koff/kₒₙ. Binding affinities for murine anti-human CD39 antibodies mAb635 and mAb638 are shown in Table 9; binding affinity for rat anti-mouse CD39 antibody mAb605 is shown in Table 10.

B1: mAb605 (antibody, V domains shown)
VH: EVQLVESGGGLVQPGRSLKLSCAASGFTFSDNYLAWVRQAPEKGLEWVASISFEGISTYYGDSVKGRFTISKDNARRTLYLQMNSLRSEDTATYYCARRSYGSRAMDAWGQGTSVTVSS
VL: DVVMTQTPVSLPVGLGGQASISCRSSQSLVHSNGNTYLSWYLKRPGQSPQLLIYRVSSRFSGVPDRFSGSGSGTDFTLKISKVVPGDLGHYYCLQTTQYPYTFGAGTKLELK
notes: rat anti-mouse CD39 hybridoma mAb, IgG2a, κ
[1]
  EC50: 2.07 nM
[2]
  EC50: 0.09 nM
[3]
  Kd: 0.389 nM
  koff: 0.000109 s⁻¹
